Results as given in the supplement of paper PMC10567573.

B1: FAM50A (parent)
chain: HIFPASRWEPYDPEKKWDKYTIR
B2: SASS6 (parent)
chain: QKELQDVGQSLRIKEQEVCKLQEQ

Variants of: B1
Experiment: protein stability index of a GFP-peptide fusion (GPS, HEK-293T) (PSI 1-6); higher = more stable
Conditions: c terminus: native
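Note: lentivirally expressed fusions sorted by FACS into six bins by GFP to DsRed ratio, PSI derived from sequencing read proportions per bin multiplied by bin number.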

Protein stability index of substitutions, site by site:
S6: G 2.98; D 1.87; V 1.95; A 2.66; C 1.72; W 2; L 1.84; I 2.63; M 2.48; P 4.97; E 3.04; Q 3.79; F 2.92; N 2.86
F3: T 3; H 1.96; C 2.54; S 2.79; Y 2.1; M 1.74; I 2.57; G 4.42; P 2.62; D 3.92; E 2.75; A 3.12; L 2.63; K 2.47; N 3.25; Q 3.31; V 2.31
E9: C 3.21; D 1.85; G 1.72; F 2.42; A 2.24; Y 1.51; R 2.43; W 2.74; K 1.68; L 2.42; V 2.17; M 1.77; N 2.05; Q 2.2; I 3.95; T 1.87; H 1.88; P 2.57; S 2.76
Y11: I 2.51; C 2.48; W 2.11; A 2.51; M 2.65; P 2.71; T 2.42; S 2.83; Q 2.28; G 3.04; V 2.67; E 2.37; H 2.35; D 2.74; F 2.18; R 4.26; K 3.01; N 2.67; L 2.27
P13: Q 1.74; M 2.53; R 2; C 1.48; W 1.25; A 2.44; D 1.75; L 1.58; N 2.05; E 1.86; Y 2.13; K 2.25; G 2.03; S 2.1; F 2.8; T 2.3; H 2.19; V 2.72; I 3.04
P10: C 3; K 2.24; R 2.7; H 2.88; A 1.71; F 2.04; N 2.02; M 1.82; Q 2.12; E 2.32; Y 2.89; W 1.58; T 2.3; D 2.23; L 1.8; V 1.94; G 2.45; S 2.91; I 1.24
K16: A 1.76; C 1.96; G 1.77; W 1.92; I 1.54; F 3.28; T 1.81; R 2.59; Y 1.66; D 1.78; E 2.79; P 2.48; M 1.71; V 1.97; S 2.6; L 2.63; H 1.72; Q 2.79
A5: L 1.58; Q 3.48; G 2.14; V 1.77; M 1.54; S 3.2; Y 1.5; C 1.73; E 1.96; K 2.31; I 2.18; D 2.04; T 2.06; F 2.24; H 1.8; P 3.42; R 1.9
W17: C 3.46; V 2.62; Q 3.14; R 2.68; G 2.43; A 2.45; L 2.37; M 2.61; F 2.9; K 2.57; E 3.48; T 2.25; P 2.56; D 2.51; Y 2.29; I 2.64; N 2.54; S 3; H 2.42
R7: M 2.6; E 3.47; V 2.48; L 1.21; G 2.5; T 2.66; W 1.22; P 2.01; C 1.85; D 3.29; A 2.34; I 1.48; S 3.31; N 2.38; K 2.1; H 2; Y 1.65; Q 2.47
E14: C 2; V 1.59; Y 2.68; K 2.27; I 2.68; Q 2.04; G 2.5; N 2.42; L 2.1; H 1.76; T 1.96; M 2.38; F 1.55; A 2.66; P 2.2; R 2.49; W 1.65; D 2.02; S 2.65
I2: P 2.15; L 3.1; C 2.74; S 2.83; V 2.88; H 2.41; W 2.16; Y 2.36; D 2.28; N 3.19; K 2.48; Q 3.11; G 3.14; M 2.35; A 2.71; F 2.33; R 3.2; E 2.95; T 2.38
K15: A 2.23; V 2.1; R 1.8; I 1.9; W 3; C 3.43; F 2.2; Y 2.12; Q 2.13; E 1.66; P 1.99; T 2.33; L 1.57; N 1.71; M 2.16; G 2.27; S 2.67; H 1.45; D 2.05
H1: M 1.22; A 1.75; Q 2.5; N 2.77; E 2.52; W 1.46; R 2.34; Y 1.69; I 1.58; K 1.08; G 3.23; C 2.4; S 2.04; P 2.83; V 1.45
D12: C 1.89; R 2.07; S 2.49; I 1.79; E 2.15; W 1.8; L 1.83; F 2.48; M 2.6; A 2.5; N 2.08; P 1.69; Y 1.75; K 2.73; Q 2.19; H 2.98; T 2.11; G 2.16; V 3.47
P4: T 3.16; R 2.13; D 2.22; N 2.71; E 2.45; L 2.56; M 1.59; V 1.79; Q 1.77; H 2.36; W 1.64; S 1.97; K 2; C 1.69
D18: N 4.48; K 3.01; E 3.2; F 1.55; C 2.61; A 1.96; G 2.28; I 2.48; H 2.58; L 2.08; M 1.92
W8: T 4.03; R 3.54; F 2.17; A 3.29; P 3.92; L 3.38; I 3.38; M 3.42; Y 2.5; K 2.96; S 3.62; H 3.46; D 3.54; E 3.6; Q 4.11; V 3.62; G 3.72; N 3.88; C 3.11

Variants of: B2
Experiment: as above
Conditions: c terminus: a fixed tail appended

Protein stability index: each site, then its substitutions
Q24: T 5.35; M 5.05; I 4.7; P 5.58; C 5; V 4.92; L 5.16; F 4.44; D 5.04; K 5.27; H 4.95; E 5.77; G 5.12; S 4.43; N 5.39; W 4.84; A 5.21; Y 4.57
E23: Y 4.12; V 4.51
